Test: soluble on expression in E. coli; label from the status in PepcDB or PDB records

| Sequence | soluble on expression in E. coli |
| --- | --- |
| MRGSHHHHHHGSMKRAVITGLGIVSSIGNNQQEVLASLREGRSGITFSQELKDSGMRSHVWGNVKLDTTGLIDRKVVRFMSDASIYAFLSMEQAIADAGLSPEAYQNNPRVGLIAGSGGGSPRFQVFGADAMRGPRGLKAVGPYVVTKAMASGVSACLATPFKIHGVNYSISSACATSAHCIGNAVEQIQLGKQDIVFAGGGEELCWEMACEFDAMGALSTKYNDTPEKASRTYDAHRDGFVIAGGGGMVVVEELEHALARGAHIYAEIVGYGATSDGADMVAPSGEGAVRCMKMAMHGVDTPIDYLNSEGTSTPVGDVKELAAIREVFGDKSPAISATKAMTGHSLGAAGVQEAIYSLLMLEHGFIAPSINIEELDEQAAGLNIVTETTDRELTTVMSNSFGFGGTNATLVMRKLKD | soluble |
| MRGSHHHHHHGSVIFDKRIKDEEDVEKELGLPVLGSIQKFNMTNTRRSTSSLIVHEQPKSPISEKFRGIRSNIMFANPDSAVQSIVITSEAPGAGMSTIAANLAVAYAQAGYKTLIVDGDMRKPTQHYIFNLPNNEGLSSLLLNWSTYQDSIISTEIEDLDVLTSGPIPPNPSELITSRAFANLYDTLLMNYNFVIIDTPPVNTVTDAQLFSKFTGNVVYVVNSENNNKDEVKKGKELIEATGAKLLGVVLNRMPKDKSASYYAYYGTDES | soluble |
| MRGSHHHHHHTDPALRAPKSVIIPAGSSAPLAPFVPGTLADGVVYVSGTLAFDQHNNVLFADDPKAQTRHVLETIRKVIETAGGTMADVTFNSIFITDWKNYAAINEIYAEFFPGDKPARFCIQCGLVKPDALVEIATIAHIAKGLCGR | soluble |
| MRGSHHHHHHTDPALRASSFQFEQIGVIRSPYKEKFAVPRQPGLVKSANGELHLIAPYNQADAVRGLEAFSHLWILFVFHQTMEGGWRPTVRPPRLGGNARMGVFATRSTFRPNPIGMSLVELKEVVCHKDSVILKLGSLDLVDGTPVVDIKPYLPFAESLPDASASYAQSAPAAEMAVSFTAEVEKQLLTLEKRYPQLTLFIREVLAQDPRPAYRKGEETGKTYAVWLHDFNVRWRVTDAGFEVFALEPRGLCGR | soluble |
| MRHREWSRATEGDRTMATTIATLTQKTDGILEGVFATIRVNAPIAIIPNASKSSEEAPDYRVIHRKTGFEIGAGWNRIARQTGEEYLSVKLEAPEIGVIFGNLAPAPGGDPSKKVILWNNPD | not soluble |
| MRIAVASGKGGTGKTTVAVNLAVFNHIDLFDLDVEEPNDRIFIKGEAEEWPAYRKVPEVRENCNACGVCKDVCQYSAIYVIDKAYPLPELCHSCGACIYLCPEKAMEEVDYQTGKIVRVKSDITLTYGEMRIGEASAVFLIKQVKELMGKNAIIDSPPGASCPMVESVSDADYVILVAEPTPFGLHDLKIAAEVVSDLGLKFGVVVNKHGLPFDGIERYCKEGGVEILGKIPFSKEIAEKYSRGELLHDMKDFFVQLYEGIALEHHHHHH | soluble |
| MRIDILTLFPGMFSGVLSESILKKAQEKGAVDIRLIDFREFADNKHKTVDDYPYGGGAGMVLKPQPIFDAVEHVTAGSPGARIILLCPQGERYTQKKAEELAKETHLVLICGHYEGYDERIRQYLATDEISIGDYILTGGELGAMVIVDSVVRLLPGVLGNEASPVDDSFSSGLLEYPQYTRPADFRGMKVPDILLSGNHQLIAEWREKESLRRTFLRRPDLLDEYPLTDKQKQWLKEWEKERE | soluble |
| MRIIKFPEQISEDIIHYTFLDDIISYNCEKCRGSCCHVNNSLLLDAKTASFLKRTYLKDFIVSDDSVSLLSCGKKCWFHSELGCTINDLGLNKPLTCELYPFHIKKIQNFYIVSFTPCPTFQLNLGEGQRYKDIEDVVLRYIKTGVPVFSPSLHVSEERLKYEIEYQNNFKNTLSEYYRTKTADGTTEFKEYEKWYIYYLDFRWGSIPLSYTSSQANQFWNLYKRVCEDVYKKISYIRTDNIYFIIANQFNKTISKHFQLNFIDKE | soluble |
| MRILDYDKVIERILEFIREKGNNGVVIGISGGVDSATVAYLATKALGKEKVLGLIMPYFENKDVEDAKLVAEKLGIGYKVINIKPIVDSFVENLELNLDRKGLGNIMSRTRMIMLYAHANSLGRIVLGTSNRSEFLTGYFTKWGDGASDYAPIINLYKTEVWEIAKRIGVPERIVKKKPSAGLWEGQTDEDELGISYNLLDEILWRMIDLKIGKEEIAKDLGIPLSLVERVEELIKKSEHKRRLPIGPSFEDLIVGP | soluble |
| MRILFIGDVVGSLGREALATYVPKLKKKYRPQVTIANGENAASGRGITGKIYKKFLQDGVDVVTMGNHTWDNKDIFEFIDDAKKMVRPANFPEDVPGQGMVFVKVNQLELAVINLQARTFMVPLEDPFKKAAELVAIARKRTPLIFVDFHGETTSEKQAMSWFLDGQVSAVVGTHTHVQTNDARILPKGTAFLSDVGMTGPYDGILGMKREPIIEKFMTALPKRFEVVETGRTILSACILEIDDQTGQAKMIEPIQISEDRPFQE | not soluble |
| MRILHTSDWHLGKNLEGYSRMDEQEEFLEDFIKIVEENNIDMVVIAGDIYDTYNPPARAEKMFYSTLKKISQNGERVTLVIAGNHDNPERLVAAGPLARDHGIIMVGTPKSVVPTGEYGKHKVLSSKEGFIEIEVNGERASIITLPYPSEKRLNEVLYEEMDSEEEKVKSYGDRIKQLFDRLSENFRDDTINMVVSHLFAMGSEEGGSERNVQLGGSFIVNGDCFPKNAQYVALGHVHKPQLVPGTHKIARYSGSPIQYNKKEINFKKKCFLVNIEAGKEPIVDEIEFKVYKPIEVWKCTGVEEAIKKCEENKDRDCWVYLEIVTDKYIGEEEMKAMKSLKKDILEILPKVSVDNEIIDMASFKERPFEEIFKEFYKKERKVEPDNEVVDLLLSIINGGEAEDETHKS | not soluble |
| MRIPLVGKDSIESKDIGFTLIHEHLRVFSEAVRQQWPHLYNEDEEFRNAVNEVKRAMQFGVKTIVDPTVMGLGRDIRFMEKVVKATGINLVAGTGIYIYIDLPFYFLNRSIDEIADLFIHDIKEGIQGTLNKAGFVKIAADEPGITKDVEKVIRAAAIANKETKVPIITHSNAHNNTGLEQQRILTEEGVDPGKILIGHLGDTDNIDYIKKIADKGSFIGLDRYGLDLFLPVDKRNETTLRLIKDGYSDKIMISHDYCCTIDWGTAKPEYKPKLAPRWSITLIFEDTIPFLKRNGVNEEVIATIFKENPKKFFS | soluble |
| MRITDVRTAVVEANYDWTFVRIYTDEGLTGLGESFLAPGLTGIIRDLKPLLVGQDPLDVDRLFSRMRWAASGAGSVAGLVYNAISGIEAALWDLAGKHYGVPVFRLLGGRHRDRVRVYADCHAGEALEALSSVMIPRRPRWLSPAGAPPPAGDPVHGRAFGLEEPGEAFTPEMYAARAREVAAMGFTALKFDLDVPNPHTLDPHSGTLTHAEIRHMVSLVEAVREAVGDGVDIAFDLHWRYNVSDAVRLACELEPYGLMWLEDPVPPENVEALRRVTRSTRTPIASGENLYLRHGFREALERGALDIAAPDLQKCGGLLEGRRIADMADAHYVAVAPHCIASPIGTVAAAHVAAAVPNFLALEWHGMSVPFWEEMAAGFDGPVIRDGYIEVPEAPGLGVELNEEVARRYAREGEPFF | soluble |
| MRKALKDSKRIVVKVGTSTLTYENGSVNLMRIEKLSRVISDICNMGKEVVLVSSGAIGVGVGKLRLEKKPETIREKQAVAAVGQCALMHIYNKFFGEYSHVVAQVLLTRDVLENERMKNNVCNTFDTLLEKGIIPIVNENDAISIDEIQNILNFGDNDNLSAIVSTLVNADTLIILSDIDGFYDSDPRTNEDSKMLKEVYEITPEIEECAGGAGSNRGTGGMVTKLSAAKVATSNGIDMILANGENPEILIDILNGEDIGTMFVAKKGELEHHHHHH | not soluble |
| MRKEGYKSGFVAIIGRPNVGKSTFLNRVIGQKIAIMSDKPQTTRNKIQGVYTDDDAQIIFIDTPGVHKPKHKLGDFMMKVALNALREVDLILFMVNAEEGFGRGEAFIIERLKEVDTPVFLVINKIDRVHPDELLPLIDRYKDLYPFAEIVPISALEGNNVDRLLEQIKERLPEGPQYYPPDQITDHPEQFIIAELIREKALHLTREEVPHSIAVVVERIERREGSPTVYISAVIVVERDSQKGIIIGKQGRMLKEIGQRARADIEALLGSRVFLELWVKVQKDWRNRLSQLRDFGFREDEY | soluble |
| MRKIIKGREPDAWLKYRCTPGAVYQRKPALADSLLLEQGYVCAYCEKRIDVQDLRVEHIKPRSQYPAQQLSYSNMVACCSGQSQGSAHCDCSKKDEEITLNLFTDALFLSISYKHDGTISSANKSWNDDINITLNLNCLSLKENRKLALEGLLEIIKKEDYSQGVLKRLKARYEAKDKGHKFAEYRGIILYYIDKKLSP | not soluble |
| MRKINTNKNDSQIYSRGFIMRNIRPSQLGQYIRRALRLHFIPVVLVAAPSVMANTNQETEQLETLVVTASALKVETPAQETPKALSIVTQEEIVARAPQKLDEALRYTSGVTAQPYGADNDTDWLKVRGFDAATYQDGSRLFRDGYYTWLIEPYALERIEVLKGPASILYGEAPPGGVVNAVQKKPTDIPQGEVGLQVGNDALRTLTLDISDYANQDGSVRYRLVALMKENDGQLNGTQTSRNYLAPSLSIDISEQTRLTLLASFLEDSGVPTNPFFPAAGTLIDSNFGHIDPSTNLGQPDYDKYERRQVSLGYLFEHDLNDVWALSQTFNYGDNDLYLRSSYAFSNDDPSKDTLTQGIVFRDGSTESLSLDNKAVAKWDSARVENTLLMGLELQRHQTQGVELDNYSFGTINPFNPNYGNFTPIDESSAADRTITKEQASLYAQYQIKLDQQWIGLIGGRMDWVDTENESQKNMQRKSRSDAEFSFNAGLMYLASNGVSPYLSYSQSFDVLSTIDSAKGELYKPLKGEQTEVGVKYQPEFYDGYINLAWFDITQQNALVTNPTTFVATQTGEMTAQGIEVESVGYVTDSLKLTASYTFTDAKTDETGGKGTQQAGLIPKHQASAWLDYDAAQLGLQGWTFGSGVRYIGESKDNPRSSDRTVPSVTLVDLMAGYEITENWQVQLNINNLFDREFVSGCDYWCYYGQSRSAVLSANYRW | not soluble |
| MRKISYRFVYNRKKSLNDRGTALVQVEAYLNKKKVYFSTHVYLRPEQWDVKRKIIKDHPNQDALNGMLNEFIIELEKKELSLWRQGKTITLSLIKEEFKSNTDASFLGFARKEIMSSQLKDSTKRNHLTTISLLQSFKPTIEFEDLTYNFVTDFEKNLYESGYQTNTVAKHMKHLKSFVNAAINKGYIDPNNYAFRRYKIKMKEGKHVFLLPEEMKKLEEVSLTGRNSCLEHTLDAFLFCCYTGLRYSDFVNLNEKNIVKMDGKLWLIFDSVKTGTEVKLPLNLLFEGKALTLLQKYQGKWSSFFSIK | not soluble |
| MRKKSSSNKEETALHPPPENFETATAELEQIVAGMETGQMSLEDALSAYKRGVELLQYCQNILKNSQQQIKILEADMLKHFSPAEHDAS | not soluble |
| MRKSRLSRYKQNKLIELFVAGVTARTATEPDSIVYTDCYRRYDVLDAGEFSHFRINHSTHFAERQNHINGIGNFWNRAKRHLRKFDGIPKEHFEPYLKECERRFLEHHHHHH | soluble |
| MRKVRIANEQTEESDIIKIVHLSDIHFSEAYYMPEIADSMLQIINESSPDIVIITGDLTENGFAAEYNGAKNFIDKIECKNKVIVPGNHDSKNAGYLFFEDIFKARSSSGYFGDVTVIGLDSSQPELDDGHIGRENYGWIESTFSTGSFKVFALHHHLIPIPKTGRGNNVLVDAGDVLELLDRSGVNLVLCGHWHIPWVWRLNDMFIISAGTVCSSKIRGKTSQCYNLIELETPESECTRWHLRITRVFSSGIKELVVDNIV | not soluble |

Source: the DeepSol protein solubility set
